Measured values published in the nanobody polyreactivity screen of Harvey et al. (2022).

Assay: yeast display, Sf9 membrane polyspecificity reagent, FACS + sequencing; frameworks hold sequencing errors
In short: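 In a synthetic yeast display library (Saccharomyces cerevisiae BJ5465), nanobody expression was induced with galactose for 36–48 hours. FACS gates were set low and high (top ~1%) using anti-HA fluorescence for expression and streptavidin fluorescence for binding of the Sf9 membrane reagent. Each polyreactivity label is drawn from the gate of origin.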

Row | Sequence | polyreactivity (PSR sort gate)
1 | QVQLVESGGGLVQAGGSLRLSCAASGRIYTRYMGWYRQAPGKEREMVATINWSGGSTYYADSVKGRFTISRDNAKNTVYLQMNSLKPEDTAVYYCNARNVDFYYVQYNGAKIFDYWGQGTQVTVSS | low polyreactivity
2 | QVQLVESGGGLVQAGGSLRLSCAASGRIYTYYTMGWYRQAPGKERELVAAITVRGGRTYYADSVKGRFTISRDNAKNTDYLQMNSLKPEDTAVYYCAARGLVRSYDYWGQVTQVTVSS | high polyreactivity
3 | QVQLVESGGGLVQAGGSLRLSCAASGRLFNYNAMGWYRQAPGKERELVASITVSRGSTYYADSVKGRFTISRDNATNTVYLQMYSLKPEDTAVYNCAADYGSKLDYGYWGQGTQVTVSS | low polyreactivity
4 | QVQLVESGGGLVQAGGSLRLSCAASGRLFSYYAMGWYRPAPGKERELVAGISYRGGSTYYADSVKGRFTISRDNAKNTVYLQMNSLKPEDTAVYYCAARPYSYGQRSLRGYWGQGTQVTVSS | high polyreactivity
5 | QVQLVESGGGLVQAGGSLRLSCAASGRLFYRNAMGWYRQAPGKERELVAAISSSAGSTYYADSVKGRFTISRDNAKNTVYLQMNSLKPEDTAVYYCAASLYSWGQGTQVTVSS | high polyreactivity
6 | QVQLVESGGGLVQAGGSLRLSCAASGRMFGPYTMGWYRQAPGKEREFVAAITRRGGSTYYADSVKGRFTFSRDNAKNTVYLQMNSLKPEDTAVYYCAAVGQNRSLGYSWGQGTQVTVSS | low polyreactivity
7 | QVQLVESGGGLVQAGGSLRLSCAASGRMFSAYAMGWYRQAPGKERELVAAITSVGSTKYADSVKGRFTISRDNAKNTVYLQMNSLKPEDTAVYYCAAEYTRSFYIYYRFGYWGQGTQVTVSS | high polyreactivity
8 | QVQLVESGGGLVQAGGSLRLSCAASGRNFGPYAMGWSRQAPGKERELVASITRSGGRTYYADSVKGRYTISRDNAKNTVYLQMNSLKPEDTAVYYCAAGGFSKSYYYWGQGTQVTVSS | high polyreactivity
9 | QVQLVESGGGLVQAGGSLRLSCAASGRNFGPYAMGWYRQAPGKERELVAVISTRGGITNYADSVKGRFTISRDTAKNTVYVQLNSLKPEDTAVYYCAARFSYPYRIAFNYWGQGTQVTVSS | low polyreactivity
10 | QVQLVESGGGLVQAGGSLRLSCAASGRNFGSYAMGWYRQAPGKERELVAAITSGGSTYYADSVKGRFTISRDNAKNTVYLQMNSLKPEDTAVYYCAARQVRTSKLHMGYWGQGTQVTVSS | low polyreactivity
11 | QVQLVESGGGLVQAGGSLRLSCAASGRNFKHYAMGWYRQAPGKERELVAAISYSGGSPKYADSVKGRFTISRYNAMNTVYLQMNSLKPEDTAVYYCAARFFTPFRFSYDYWGQGTQVTVSS | high polyreactivity
12 | QVQLVESGGGLVQAGGSLRLSCAASGRNFKNYDMVWYRQAPGKERELVADISWRSGSTNYSDSVKGRFTISRDNAKNNVYLQMNSLKPEDTAVYYCASKRRISGWSQFTSYADFDYWGQGTQVTVSS | low polyreactivity
13 | QVQLVESGGGLVQAGGSLRLSCAASGRNFNYNAMGWYRQAPGKERELVAVISWSGRTYYADSVKGRFTISRDNAKNTVYLLMNSLKPEDTAVYYCNKRSYRVLYGYWGQGTQVTVSS | high polyreactivity
14 | QVQLVESGGGLVQAGGSLRLSCAASGRNFPYYAMGWYRQAPGKERELVAAISSSGGGTYYADSVKGRFTISRDNEKNTVYLQMNSLKPEDTAVYYCAAVYKVHSGLYDYWGQGTQVTLSS | high polyreactivity
15 | QVQLVESGGGLVQAGGSLRLSCAASGRNFSFNTMVWYIQAPRKERELVAAITSSSARTYYADSVKGRFTISRDNAKNTVYLQMNSLKPEDTAVDYCDTRDWVGSVRMGYWGQGTQVTVSS | high polyreactivity
16 | QVQLVESGGGLVQAGGSLRLSCAASGRNFSLYAMGWYRQAPGKERELVAAISRGGSTYYADSVKGRFTISRDNAKNTVYLQMNSLKPEDTAVYYCAAAPDYRAEYDYWGQGTQVTVSS | low polyreactivity
17 | QVQLVESGGGLVQAGGSLRLSCAASGRNFTRNAMGWYRQAPGKEREFVAAISYRGGSTYYADSVKGRFTISRDNAKNTVYLQMNSLKPEDSAVYYCAKRIYPYYGELYWGQGTQVTVSS | high polyreactivity
18 | QVQLVESGGGLVQAGGSLRLSCAASGRNFWVYAMGWYRQAPGKERELVAAISLSGGRTYYADSVKGRFTITRDKAKNNVNLQMNSLKPEDTAVYYCYAVYPKRGGGRIVDYWGQGTQVTVSS | high polyreactivity
19 | QVQLVESGGGLVQAGGSLRLSCAASGRNFYVYAMGWYRQAPGKERELVATISRGGSTTYADSVKGRFTISRDNAKNTVYLQMNSLKPEDTAVYYCATELLGGRRTVAYYWGQGTQVTVSS | low polyreactivity
20 | QVQLVESGGGLVQAGGSLRLSCAASGRNFYVYGLGWYRQAPGKERELVASITYRGGSTSYADSVKGRFTISRDNAKNTVYLQMNSLKPEDTAVYYCNADTYYRYDYWGQGTQVTVSS | high polyreactivity
21 | QVQLVESGGGLVQAGGSLRLSCAASGRNFYYNAMGWYRQAPGKERELVAVISGRGGSTYYADSVKGRFTISRDNAKNTVYLQMNSLKPEDTAVYYCAAGYTRPWRFTYYYWGQGTQVTVSS | high polyreactivity
22 | QVQLVESGGGLVQAGGSLRLSCAASGRNITANAMGWYRQAPGKEREFVAAINVSGGSTYYADSVKGRFTISRDNAKNTVYFQMNSLKPEDTAVYYCNADYYYYDIYWWQMDYWGLGTQVTVSS | low polyreactivity

Row | Sequence | polyreactivity (PSR sort gate)
23 | QVQLVESGGGLVQAGGSLRLSCAASGRPFRGYAMGWYRQAPGKDRELVAAITRSGGSTYYADSVKGRFTISRDNAKNTVYVQMTSLKPEDTAVSYCNAVRHAQSRWPYGYWGQGTQVTVSS | high polyreactivity
24 | QVQLVESGGGLVQAGGSLRLSCAASGRPFVGNVMGWYRQAPGKERELVDAITRTAGSTYYADSVKGRFTISRDNAKNTVYLEMNSLKPEDTAVDYCAVEGIYRWYDYSWYYTSTYDYWGQGTQVTVSS | low polyreactivity
25 | QVQLVESGGGLVQAGGSLRLSCAASGRSFSGYAMGWYRQAPGKERDLVAAITSSGGRTYYADSVKGRFTISRDNAKNTVYVQMNSLKPEETAVYYSAAMRPGYRPQGLDYWGQGTQVTVSS | low polyreactivity
26 | QVQLVESGGGLVQAGGSLRLSCAASGRSFYFNAMGWYRQAPGKERELVATISSSSTTYADSVKRRFTISRDNAKNTVYLQMTSLKPEDTAVYYCAARLGTYGEWGRTSYLRWYDYWGQGTQVTVSS | low polyreactivity
27 | QVQLVESGGGLVQAGGSLRLSCAASGRSIAYYAMGWYRQAPGKERELVAAINWSGGRTYYADSVKGRFTLSRDNAKNTVYLQMNSLKPEETAVYYCNAVYNESRGSYQDDYWGQGTQVTVSS | high polyreactivity
28 | QVQLVESGGGLVQAGGSLRLSCAASGRSLGWYAMGWYRKAPGKERELVAAISSGVRTNYADSVKGRFTISRDNAKNTVYLQMNSLKPEDTAVYYCAAATYNQDYSYDYWGQGTQVTVSS | low polyreactivity
29 | QVQLVESGGGLVQAGGSLRLSCAASGRTCGRYAMVLYRQAPGKERELVAAISYSGGSTYYADSVKGRFTISRDNAKNTVYLQMNSLKPEDTAVYYCARYSIFRWTRDEYWGQGTQVTVSS | high polyreactivity
30 | QVQLVESGGGLVQAGGSLRLSCAASGRTCWYKAMGWYRQAPGKERELVAPITSGGRTKYADSVKGRFTISRDNAKNTVYLQMNSLKPEDTAVYYCNTYNRRSGTLPKPYDYWGQGTQVTVSS | high polyreactivity
31 | QVQLVESGGGLVQAGGSLRLSCAASGRTCYNTMGWYRQAPGKERELVAAISRGGITNYADSVKGRFTISRDSAKKTGYLQMNRLKPEDTAVYYCNAEPKRYYYYYKFDYWGQGTQVTVSS | high polyreactivity
32 | QVQLVESGGGLVQAGGSLRLSCAASGRTDAYYAMGWYRQAPGKERELVAAITRGGSTYYADSVKGRFTISRDNAKNTVYLQMNSLKPEDTAVYYCAAATSPYQDDYWGQGTQVTVSS | low polyreactivity
33 | QVQLVESGGGLVQAGGSLRLSCAASGRTFAAYTMGWYSQAPGKERELVAAIRRSGSSTYYADSVKGRFTISRDNAKNTVYLQMNSLKPEDTAVYYCARVGRFTGGGYWGQGTQVTVSS | high polyreactivity
34 | QVQLVESGGGLVQAGGSLRLSCAASGRTFAGNAMGWYRQAPGKERELVAAIRRTGGRTYYADSVKGRFTISRDNAKNTVYLQMNSLKPEETAVYYCNAVNKPYTREYGYDYWGQGTQVTGSS | high polyreactivity
35 | QVQLVESGGGLVQAGGSLRLSCAASGRTFAGNAMGWYRQAPGKERELVAGISSGGSTNNADSVKGRFTSTRDNAKNTVYLQMNSLNPEDTAVYYCAKRYFRKGYPLFQYAYGYWGQGTQVTLSS | high polyreactivity
36 | QVQLVESGGGLVQAGGSLRLSCAASGRTFAGYAMGWYRQAPGKERELVAAISTRGGSTYYADSVKGRFTISRDNAKNTVYLQMNSLKPEDTAVYYCAATKPKFYQFDYWGQGTQVTVSS | high polyreactivity
37 | QVQLVESGGGLVQAGGSLRLSCAASGRTFAGYVMGWYRQAPGKERELVAAISTSGGSTRYADSVKGRFTISRDNAKNTVYLQMNSLKPEDTAVYYCAKLLYLGRWRFPAGYNHWGQGTQVTVSS | high polyreactivity
38 | QVQLVESGGGLVQAGGSLRLSCAASGRTFAIDAMGWYRQAPGKEREFVAAISWSGGDTYYADSVKGRFTISRDNAKNTVYFQMNRLKPEDTAVYYSAGRDNDYEGRDLQDELDYWGQGTQVTVSS | low polyreactivity
39 | QVQLVESGGGLVQAGGSLRLSCAASGRTFAINARGWYRQAPGKERELVAAITTSGGGTYYADSVKGRFTISRDNAKNTVYLQMNSLKPEDTAVYYCAAGTSYYTYRFYAWDYDYWGQGTQVTVSS | low polyreactivity
40 | QVQLVESGGGLVQAGGSLRLSCAASGRTFAIYAMGWYRQAPGKERELVAGITIRGGRTYYADSVKGRFTISRYIAKNTVYLQMNSLKPEDTAVYYCNARGWYEYGWGQGTQVTVSS | high polyreactivity
41 | QVQLVESGGGLVQAGGSLRLSCAASGRTFAKYAMGWSRPAPGKERELVAAIRWSGGSTYYADSVKGRFTISRDNAKNTVYLQMTSLKPEDTAVYYCATERFVLGLGYDYWGQGTQVTVSS | high polyreactivity
42 | QVQLVESGGGLVQAGGSLRLSCAASGRTFAKYAMGWYRQAPGKERELVAAIRWSGGSTYYADSVKGRFTISRDNAKNTVYLQMNSLKPEDTAVYYCAARPALWGRYRGYDYWGQGTQVTVSS | high polyreactivity
43 | QVQLVESGGGLVQAGGSLRLSCAASGRTFAKYAMGWYRQAPGKERELVAAISDSGGSTYYADSVKGRFTISRDNAKNTVYLQMNSLKPEDTAVYYCAADGRYTYYWGQGTQVTVSS | high polyreactivity
